Results reported in patent US20190202883A1 (Takeda / Millennium, published 2019).
Square brackets hold non-standard residues; d marks the D form. Side chains are listed from the residue outwards. Phe(2-F) = N[C@@H](Cc1ccccc1F)C(=O)O; αMeF = C[C@](N)(Cc1ccccc1)C(=O)O; Iva = CC[C@](C)(N)C(=O)O; Oda = not defined here; Aib = CC(C)(N)C(=O)O

T1: human GIPR (human, UniProt P48546 22-466)
T1 sequence (looked up): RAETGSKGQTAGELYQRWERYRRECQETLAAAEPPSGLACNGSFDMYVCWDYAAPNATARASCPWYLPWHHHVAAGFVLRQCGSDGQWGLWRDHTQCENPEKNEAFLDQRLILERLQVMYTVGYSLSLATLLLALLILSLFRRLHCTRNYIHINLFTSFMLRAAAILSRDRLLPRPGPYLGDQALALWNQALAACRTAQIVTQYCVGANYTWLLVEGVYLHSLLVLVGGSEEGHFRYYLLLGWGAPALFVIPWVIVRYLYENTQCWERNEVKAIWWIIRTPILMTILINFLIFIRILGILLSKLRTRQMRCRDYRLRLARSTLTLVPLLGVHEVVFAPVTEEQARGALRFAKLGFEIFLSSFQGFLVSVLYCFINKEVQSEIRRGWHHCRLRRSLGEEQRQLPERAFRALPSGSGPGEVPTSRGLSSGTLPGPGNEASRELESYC

T2: human NPY2R (human, UniProt P49146 1-381)
T2 sequence (looked up): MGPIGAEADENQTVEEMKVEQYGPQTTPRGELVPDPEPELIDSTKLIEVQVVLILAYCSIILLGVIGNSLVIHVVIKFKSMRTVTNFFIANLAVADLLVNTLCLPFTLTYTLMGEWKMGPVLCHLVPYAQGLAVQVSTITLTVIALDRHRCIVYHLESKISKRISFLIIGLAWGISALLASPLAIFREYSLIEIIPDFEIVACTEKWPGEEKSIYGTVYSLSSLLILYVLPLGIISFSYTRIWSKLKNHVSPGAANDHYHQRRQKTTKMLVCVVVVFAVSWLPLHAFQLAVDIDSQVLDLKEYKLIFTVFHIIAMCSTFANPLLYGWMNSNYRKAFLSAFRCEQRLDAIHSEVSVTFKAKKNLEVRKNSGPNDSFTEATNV


How the values were obtained:
Experiment in all cases: cell-based or functional assay
human GLP-1R = human GLP-1R (human, UniProt P43220 24-463)
human GIPR = target: T1, human GIPR
human NPY2R = target: T2, human NPY2R

Agonist activity (EC50), Cre-luc reporter assay (human GLP-1R) [pM]	Agonist activity (EC50), Cre-luc reporter assay (human GIPR) [pM]	Agonist activity (EC50), Cre-luc reporter assay (human NPY2R) [pM]	Binder
48	52	49	Me-Y[Aib]EGT[αMeF]TSDK([Gly-Gly-Gly-Gly-Pal])SI[Aib]LEKQRQ[Iva]EFVRHLLNK[Aib]TRQRY-NH2
100	74	100	Me-Y[Aib]EGT[αMeF]TSDK([Gly-Gly-Gly-Gly-Pal])AI[Aib]LDKQRQ[Iva]EFVRHLLNK[Aib]TRQRY-NH2
49	50	81	Me-Y[Aib]EGT[αMeF]TSDK([Gly-Gly-Gly-Gly-Pal])SI[Aib]LDKQRQ[Iva]EFVRHLLNK[Aib]TRQRY-NH2
4400	170	3200	Me-Y[Aib]EGT[αMeF]TSDK([Gly-Gly-Gly-Gly-Oda])AI[Aib]LDKQRQ[Iva]EFVRHLLNK[Aib]TRQRY-NH2 (reading uncertain; also: printed as Me-Tyr-Aib-Glu-Gly-Thr-αMePhe-Thr-Ser-Asp-Lys(-Gly-Gly-Gly-Gly-Oda)-Ala-Ile-Aib-Leu-Asp-Lys-Gln-Arg-Gln-Iva-Glu-Phe-Val-Arg-His-Leu-Leu-Asn-Lys-Aib-Thr-Arg-Gln-Arg-Tyr-NH2)
1300	250	2600	Me-Y[Aib]EGT[αMeF]TSDK([Gly-Gly-Gly-Gly-Oda])SI[Aib]LEKQRQ[Iva]EFVRHLLNK[Aib]TRQRY-NH2 (reading uncertain; also: printed as Me-Tyr-Aib-Glu-Gly-Thr-αMePhe-Thr-Ser-Asp-Lys(-Gly-Gly-Gly-Gly-Oda)-Ser-Ile-Aib-Leu-Glu-Lys-Gln-Arg-Gln-Iva-Glu-Phe-Val-Arg-His-Leu-Leu-Asn-Lys-Aib-Thr-Arg-Gln-Arg-Tyr-NH2)
130	93	120	Me-Y[Aib]EGT[αMeF]TSDK([Gly-Gly-Gly-Gly-Pal])[Aib]I[Aib]LDKQRQ[Iva]EFVRHLLNK[Aib]TRQR[Phe(2-F)]-NH2
83	68	100	Me-Y[Aib]EGT[αMeF]TSDK([Gly-Gly-Gly-Gly-Pal])[Aib]I[Aib]LDKQRQ[Iva]EFVRHLLNK[Aib]TRQRY-NH2

Further lines, the binder ahead of its results:

Binder	Agonist activity (EC50), Cre-luc reporter assay (human GLP-1R) [pM]	Agonist activity (EC50), Cre-luc reporter assay (human GIPR) [pM]	Agonist activity (EC50), Cre-luc reporter assay (human NPY2R) [pM]
H-Y[Aib]EGT[αMeF]TSDK([Gly-Gly-Gly-Gly-Oda])AI[Aib]LDKQRQ[Iva]EFVRHLLNK[Aib]TRQRY-NH2 (reading uncertain; also: printed as H-Tyr-Aib-Glu-Gly-Thr-αMePhe-Thr-Ser-Asp-Lys(-Gly-Gly-Gly-Gly-Oda)-Ala-Ile-Aib-Leu-Asp-Lys-Gln-Arg-Gln-Iva-Glu-Phe-Val-Arg-His-Leu-Leu-Asn-Lys-Aib-Thr-Arg-Gln-Arg-Tyr-NH2)	1200	260	3000
H-Y[Aib]EGT[αMeF]TSDK([Gly-Gly-Gly-Gly-Oda])SI[Aib]LDKQRQ[Iva]EFVRHLLNK[Aib]TRQRY-NH2 (reading uncertain; also: printed as H-Tyr-Aib-Glu-Gly-Thr-αMePhe-Thr-Ser-Asp-Lys(-Gly-Gly-Gly-Gly-Oda)-Ser-Ile-Aib-Leu-Asp-Lys-Gln-Arg-Gln-Iva-Glu-Phe-Val-Arg-His-Leu-Leu-Asn-Lys-Aib-Thr-Arg-Gln-Arg-Tyr-NH2)	470	110	2600
Me-Y[Aib]EGT[αMeF]TSDK([Gly-Gly-Gly-Gly-Oda])[Aib]I[Aib]LDKQRQ[Iva]EFVRHLLNK[Aib]TRQR[Phe(2-F)]-NH2 (reading uncertain; also: printed as Me-Tyr-Aib-Glu-Gly-Thr-αMePhe-Thr-Ser-Asp-Lys(-Gly-Gly-Gly-Gly-Oda)-Aib-Ile-Aib-Leu-Asp-Lys-Gln-Arg-Gln-Iva-Glu-Phe-Val-Arg-His-Leu-Leu-Asn-Lys-Aib-Thr-Arg-Gln-Arg-Phe(2-F)-NH2)	1500	290	1000
H-Y[Aib]EGT[αMeF]TSDK([Gly-Gly-Gly-Gly-Oda])[Aib]I[Aib]LDKQAQ[Iva]EFVRHLLNK[Aib]TRQR[Phe(2-F)]-NH2 (reading uncertain; also: printed as H-Tyr-Aib-Glu-Gly-Thr-αMePhe-Thr-Ser-Asp-Lys(-Gly-Gly-Gly-Gly-Oda)-Aib-Ile-Aib-Leu-Asp-Lys-Gln-Ala-Gln-Iva-Glu-Phe-Val-Arg-His-Leu-Leu-Asn-Lys-Aib-Thr-Arg-Gln-Arg-Phe(2-F)-NH2)	110	71	2100
H-Y[Aib]EGT[αMeF]TSDK([Gly-Gly-Gly-Gly-Oda])SI[Aib]LEKQRQ[Iva]EFVRHLLNK[Aib]TRQRY-NH2 (reading uncertain; also: printed as H-Tyr-Aib-Glu-Gly-Thr-αMePhe-Thr-Ser-Asp-Lys(-Gly-Gly-Gly-Gly-Oda)-Ser-Ile-Aib-Leu-Glu-Lys-Gln-Arg-Gln-Iva-Glu-Phe-Val-Arg-His-Leu-Leu-Asn-Lys-Aib-Thr-Arg-Gln-Arg-Tyr-NH2)	240	170	1600
H-Y[Aib]EGT[αMeF]TSDK([Gly-Gly-Gly-Gly-Pal])SI[Aib]LDKQRQ[Iva]EFVRHLLNK[Aib]TRQRY-NH2	50	56	48
H-Y[Aib]EGT[αMeF]TSDK([Gly-Gly-Gly-Gly-Oda])[Aib]I[Aib]LDKQRQ[Iva]EFVRHLLNK[Aib]TRQRY-NH2 (reading uncertain; also: printed as H-Tyr-Aib-Glu-Gly-Thr-αMePhe-Thr-Ser-Asp-Lys(-Gly-Gly-Gly-Gly-Oda)-Aib-Ile-Aib-Leu-Asp-Lys-Gln-Arg-Gln-Iva-Glu-Phe-Val-Arg-His-Leu-Leu-Asn-Lys-Aib-Thr-Arg-Gln-Arg-Tyr-NH2)	320	220	2100
Me-Y[Aib]EGT[αMeF]TSDK([Gly-Gly-Gly-Gly-Oda])[Aib]I[Aib]LDKQRQ[Iva]EFVRHLLNK[Aib]TRQRY-NH2 (reading uncertain; also: printed as Me-Tyr-Aib-Glu-Gly-Thr-αMePhe-Thr-Ser-Asp-Lys(-Gly-Gly-Gly-Gly-Oda)-Aib-Ile-Aib-Leu-Asp-Lys-Gln-Arg-Gln-Iva-Glu-Phe-Val-Arg-His-Leu-Leu-Asn-Lys-Aib-Thr-Arg-Gln-Arg-Tyr-NH2)	1400	250	2000
H-Y[Aib]EGT[αMeF]TSDK([Gly-Gly-Gly-Gly-Pal])[Aib]I[Aib]LDKQRQ[Iva]EFVRHLLNK[Aib]TRQRY-NH2	82	68	100
H-Y[Aib]EGT[αMeF]TSDK([Gly-Gly-Gly-Gly-Pal])AI[Aib]LDKQRQ[Iva]EFVRHLLNK[Aib]TRQRY-NH2	79	66	99
